Key:
[1] = substrate: CC(C)=CCC/C(C)=C/CC/C(C)=C/CO[P@@](=O)(O)OP(=O)(O)O; experiment: cells, lysate or membranes; settings: Mg2+ ([…] magnesium chloride in assay)
[2] = substrate: O=C(O)Cc1cc(O)ccc1O; experiment: cells, lysate or membranes; settings: Mg2+ ([…] magnesium chloride in assay)

B1: homogentisate solanesyltransferase (CrHST) (Chlamydomonas reinhardtii) (protein)
chain: SAAVPAPLPNGGNDESFAQKLANFPNAFWKFLRPHTIRGTILGTTAVTAKVLMENPGCIDWALLPKALLGLVALLCGNGYIVGINQIYDVDIDVVNKPFLPVASGELSPALAWGLCLSLAAAGAGIVAANFGNLITSLYTFGLFLGTVYSVPPLRLKQYAVPAFMIIATVRGFLLNFGVYSATRAALGLPFEWSPAVSFITVFVTLFATVIAITKDLPDVEGDQANNISTFATRMGVRNVALLAIGLLMANYLGAIALALTYSTAFNVPLMAGAHAILAATLALRTLKLHAASYSREAVASFYRWIWNLFYAEYALLPFL
[1]
  Km: 22.76 ± 1.70 µM
[2]
  Km: 48.54 ± 3.89 µM

Reference: PMC10920428, “Expression, purification, and characterization of transmembrane protein homogentisate solanesyltransferase” (Applied Microbiology and Biotechnology, 2024)
